The RNAGym collection of RNA variant scans (doi:10.1021/acssynbio.7b00057)

B1: Pistol ribozyme (parent)
chain: GGGUCGUUGUUCCAUAAUCGCGUGGAUAUGGCACGCAAGUUUCUACCGGGCACCGUAAAUGUCCGACUGGAGCCGUUCGGGCGGCUAUAAACAGACCUCAGGCCCGAAGCGUGGCGGCACCUGCCGCCGGUGGUAAAAAAGAUCGGAAGAGCACACGUCU

Variants of: B1
Test: aptazyme ON/OFF ratio, guanine; higher = stronger switching; co-transcriptional cleavage with and without guanine

Variant	aptazyme ON/OFF ratio
GGGUCGGGAGUACAUAAUCGCGUGGAUAUGGCACGCAAGUUUCUACCGGGCACCGUAAAUGUCCGACUGGAGCCGUUCGGGCGGCUAUAAACAGACCUCAGGCCCGAAGCGUGGCGGCACCUGCCGCCGGUGGUAAAAAAGAUCGGAAGAGCACACGUCU [U7G U8G G9A U10G C12A]	1.27
GGGUCGGGAGUGCAUAAUCGCGUGGAUAUGGCACGCAAGUUUCUACCGGGCACCGUAAAUGUCCGACUGGAGCCGUUCGGGCGGCUAUAAACAGACCUCAGGCCCGAAGCGUGGCGGCACCUGCCGCCGGUGGUAAAAAAGAUCGGAAGAGCACACGUCU [U7G U8G G9A U10G C12G]	1.28
GGGUCGGGAGUUCAUAAUCGCGUGGAUAUGGCACGCAAGUUUCUACCGGGCACCGUAAAUGUCCGACUGGAGCCGUUCGGGCGGCUAUAAACAGACCUCAGGCCCGAAGCGUGGCGGCACCUGCCGCCGGUGGUAAAAAAGAUCGGAAGAGCACACGUCU [U7G U8G G9A U10G C12U]	1.29
GGGUCGGGAGAAUAUAAUCGCGUGGAUAUGGCACGCAAGUUUCUACCGGGCACCGUAAAUGUCCGACUGGAGCCGUUCGGGCGGCUAUAAACAGACCUCAGGCCCGAAGCGUGGCGGCACCUGCCGCCGGUGGUAAAAAAGAUCGGAAGAGCACACGUCU [U7G U8G G9A U10G U11A C12A C13U]	1.18
GGGUCGGGAGAAGAUAAUCGCGUGGAUAUGGCACGCAAGUUUCUACCGGGCACCGUAAAUGUCCGACUGGAGCCGUUCGGGCGGCUAUAAACAGACCUCAGGCCCGAAGCGUGGCGGCACCUGCCGCCGGUGGUAAAAAAGAUCGGAAGAGCACACGUCU [U7G U8G G9A U10G U11A C12A C13G]	1.04
GGGUCGGGAGAAAAUAAUCGCGUGGAUAUGGCACGCAAGUUUCUACCGGGCACCGUAAAUGUCCGACUGGAGCCGUUCGGGCGGCUAUAAACAGACCUCAGGCCCGAAGCGUGGCGGCACCUGCCGCCGGUGGUAAAAAAGAUCGGAAGAGCACACGUCU [U7G U8G G9A U10G U11A C12A C13A]	1.12
GGGUCGGGAGACGAUAAUCGCGUGGAUAUGGCACGCAAGUUUCUACCGGGCACCGUAAAUGUCCGACUGGAGCCGUUCGGGCGGCUAUAAACAGACCUCAGGCCCGAAGCGUGGCGGCACCUGCCGCCGGUGGUAAAAAAGAUCGGAAGAGCACACGUCU [U7G U8G G9A U10G U11A C13G]	1.11
GGGUCGGGAGACUAUAAUCGCGUGGAUAUGGCACGCAAGUUUCUACCGGGCACCGUAAAUGUCCGACUGGAGCCGUUCGGGCGGCUAUAAACAGACCUCAGGCCCGAAGCGUGGCGGCACCUGCCGCCGGUGGUAAAAAAGAUCGGAAGAGCACACGUCU [U7G U8G G9A U10G U11A C13U]	1.12
GGGUCGGGAGACAAUAAUCGCGUGGAUAUGGCACGCAAGUUUCUACCGGGCACCGUAAAUGUCCGACUGGAGCCGUUCGGGCGGCUAUAAACAGACCUCAGGCCCGAAGCGUGGCGGCACCUGCCGCCGGUGGUAAAAAAGAUCGGAAGAGCACACGUCU [U7G U8G G9A U10G U11A C13A]	1.11
GGGUCGGGAGUAAAUAAUCGCGUGGAUAUGGCACGCAAGUUUCUACCGGGCACCGUAAAUGUCCGACUGGAGCCGUUCGGGCGGCUAUAAACAGACCUCAGGCCCGAAGCGUGGCGGCACCUGCCGCCGGUGGUAAAAAAGAUCGGAAGAGCACACGUCU [U7G U8G G9A U10G C12A C13A]	1.1
GGGUCGGGAGUAGAUAAUCGCGUGGAUAUGGCACGCAAGUUUCUACCGGGCACCGUAAAUGUCCGACUGGAGCCGUUCGGGCGGCUAUAAACAGACCUCAGGCCCGAAGCGUGGCGGCACCUGCCGCCGGUGGUAAAAAAGAUCGGAAGAGCACACGUCU [U7G U8G G9A U10G C12A C13G]	1.07
GGGUCGGGAGUAUAUAAUCGCGUGGAUAUGGCACGCAAGUUUCUACCGGGCACCGUAAAUGUCCGACUGGAGCCGUUCGGGCGGCUAUAAACAGACCUCAGGCCCGAAGCGUGGCGGCACCUGCCGCCGGUGGUAAAAAAGAUCGGAAGAGCACACGUCU [U7G U8G G9A U10G C12A C13U]	1.32
GGGUCGGGAGCCCAUAAUCGCGUGGAUAUGGCACGCAAGUUUCUACCGGGCACCGUAAAUGUCCGACUGGAGCCGUUCGGGCGGCUAUAAACAGACCUCAGGCCCGAAGCGUGGCGGCACCUGCCGCCGGUGGUAAAAAAGAUCGGAAGAGCACACGUCU [U7G U8G G9A U10G U11C]	1.05
GGGUCGGGAGACCAUAAUCGCGUGGAUAUGGCACGCAAGUUUCUACCGGGCACCGUAAAUGUCCGACUGGAGCCGUUCGGGCGGCUAUAAACAGACCUCAGGCCCGAAGCGUGGCGGCACCUGCCGCCGGUGGUAAAAAAGAUCGGAAGAGCACACGUCU [U7G U8G G9A U10G U11A]	1.07
GGGUCGGGAGUGAAUAAUCGCGUGGAUAUGGCACGCAAGUUUCUACCGGGCACCGUAAAUGUCCGACUGGAGCCGUUCGGGCGGCUAUAAACAGACCUCAGGCCCGAAGCGUGGCGGCACCUGCCGCCGGUGGUAAAAAAGAUCGGAAGAGCACACGUCU [U7G U8G G9A U10G C12G C13A]	1.11
GGGUCGGGAGUGUAUAAUCGCGUGGAUAUGGCACGCAAGUUUCUACCGGGCACCGUAAAUGUCCGACUGGAGCCGUUCGGGCGGCUAUAAACAGACCUCAGGCCCGAAGCGUGGCGGCACCUGCCGCCGGUGGUAAAAAAGAUCGGAAGAGCACACGUCU [U7G U8G G9A U10G C12G C13U]	1.55
GGGUCGGGAGUGGAUAAUCGCGUGGAUAUGGCACGCAAGUUUCUACCGGGCACCGUAAAUGUCCGACUGGAGCCGUUCGGGCGGCUAUAAACAGACCUCAGGCCCGAAGCGUGGCGGCACCUGCCGCCGGUGGUAAAAAAGAUCGGAAGAGCACACGUCU [U7G U8G G9A U10G C12G C13G]	1.16
GGGUCGGGAGAGCAUAAUCGCGUGGAUAUGGCACGCAAGUUUCUACCGGGCACCGUAAAUGUCCGACUGGAGCCGUUCGGGCGGCUAUAAACAGACCUCAGGCCCGAAGCGUGGCGGCACCUGCCGCCGGUGGUAAAAAAGAUCGGAAGAGCACACGUCU [U7G U8G G9A U10G U11A C12G]	1.15
